Positions count from the first letter of the chain named. Several values for one entry are separate records, joined by “and”; a condition that tells them apart may be missing. Identical values can stand only once.
B1: ABT1-122-750xH (other)
VL: DIQMTQSPSSLSASVGDRVAITCSASQHIWTEISWYQQKPGKAPKLLIYGSASRQKGVPSRFSGSGSGTDFTLTISSLQPEDFATYHCKQFAYFPNTFGQGTKVEIKR
notes: VK dAb
B2: ABT1-95-A1 (other)
VL: DIQMTQSPSSLSASVGDRVTITCRASRPGVRNLRWYQQKPGKAPKLLIYHVSDLEPGVPSRFSGSGSGTDFTLTISSLQPEDFATYHCRQGYVWPVPFDQGTKVEIKR
notes: VK dAb
B3: ABT1-95-3 (other)
VL: DIQMTQSPSSLSASVGDRVTITCRASQPIHGNLRWYQQKPGKAPKLLIYSSSYLQSGVPSRFSGSGSGTDFTLTISSLQPEDFATYHCQQGYRWPVTFGQGTKVEIKR
notes: VK dAb
B4: ABT1-95-9 (other)
VL: B3 VL with H30Q, Q55E, S56R, Q79H
notes: VK dAb
B5: ABT1-95-10 (other)
VL: B3 VL with H30Q, Q55E, S56R, Q79H, F83L
notes: VK dAb
B6: ABT1-95-12 (other)
VL: B3 VL with Q55E, G57W
notes: VK dAb
B7: ABT2-108-538x/ABT1-122-511 hu IgG1/K wt (bispecific antibody, V domains shown)
VH: EVQLLESGGGLVQPGGSLRLSCAASGFTFADEGMMWVRQAPGKGLEWVSRITYSGKNTYYADSVKGRFTISRDNSKNTLYLQMNSLRAEDTAVYYCAKYTGRILGHHLFDYWGQGTLVTVSS
VL: B1 VL with A20T, S24R, H28P, I33L, S34N, A52S, R54L, K56R, H87Y, N96A
B8: ABT2-108-538x/ABT1-122-750x hu IgG1/K wt (bispecific antibody, V domains shown)
VH: B7 VH
VL: B1 VL with H87Y
B9: ABT2-108/ABT1-141 hu IgG1/K wt (bispecific antibody, V domains shown)
VH: EVQLLESGGGLVQPGGSLRLSCAASGFTFAEYTMMWVRQAPGKGLEWVSRIGQDGKNTYYADSVKGRFTISRDNSKNTLYLQMNSLRAEDTAVYYCAKYTGRVGVHHLFDYWGQGTLVTSS
VL: DIQMTQSPSSLSASVGDRVTITCRASQWIQKQLAWYQQKPGKAPKLLIYSSSYLQSGVPRFSGSGSGTDFTLTISSLQPEDFATYYCQQHLRVPFTFGQGTKVEIKR
B10: ABT2-65-17/ABT1-141-25 hu IgG1/K wt (bispecific antibody, V domains shown)
VH: EVQLLESGGGLVQPGGSLRLSCVASGFTFEDYQMGWVRQAPGKGLEWVSSISAMGNRTYYADSVKGRFTISRDDSKNTLYLQMNSLRAEDTAVYYCAQNLVRLGRSRWMFDYWGQGTLVTVSS
VL: B3 VL with P28W, H30Q, G31K, N32Q, R34A, H87Y, G91H, Y92L, W94V, V96M
B11: ABT2-108/ABT1-95-3 hu IgG1/K wt (bispecific antibody, V domains shown)
VH: B9 VH
VL: B3 VL
B12: ABT2-108-538x/ABT1-95-A3 hu IgG1mut 234, 235/K (bispecific antibody, V domains shown)
VH: B7 VH
VL: B2 VL with R27K, L33M, H50S, D53Y, R89L, V93R, V96P, P97T, D99G
B13: ABT2-65-166/ABT1-95-A5 hu IgG1mut 234, 235/K (bispecific antibody, V domains shown)
VH: B10 VH with V23A, N56G, D74N
VL: B2 VL with P28T, G29P, H50S, V51R, D53F, R89L, V93R, V96P, P97T, D99G
B14: ABT2-65-17/ABT1-95-15 huIgG1/K wt (bispecific antibody, V domains shown)
VH: B10 VH
VL: B3 VL with H30V, G31R, Q55E, S56P
B15: IgG pairing ABT1-122-750X with ABT2-65-17 (bispecific antibody, V domains shown)
VH: B10 VH
VL: B1 VL with H87Y
B16: ABT2-108-521/ABT1-122 hu IgG1/K wt (bispecific antibody, V domains shown)
VH: B7 VH with D31E, E32Y, G33T, T52G, Y53Q, S54D
VL: DIQMTQSPSSLSASVGDRVTITCRASQPIWTELNWYQQKPGKAPKLLIYGSSSLQSGVPRFSGSGSGTDFTLTISSLQPEDFATYYCQQFAYFPATFGQGTKVEIKR
B17: ABT2-108/ABT1-122 Fab on yeast surface (Fab, V domains shown)
VH: B7 VH with D31E, E32Y, G33T, T52G, Y53Q, S54D, I103V, L104G, G105V
VL: DIQMTQSPSSLSASVGDRVTITCRASQPIWTELNWYQQKPGKAPKLLIYGSSSLQSGVPSRFSGSGSGTDFTLTISSLQPEDFATYYCQQFAYFPATFGQGTKVEIKR
B18: ABT2-108-601/ABT1-122 Fab on yeast surface (Fab, V domains shown)
VH: B7 VH with D31E, G33S, M34W, T52G, Y53Q, S54D, I103V, L104G, G105V
VL: B17 VL
B19: ABT2-108-602/ABT1-122 Fab on yeast surface (Fab, V domains shown)
VH: B7 VH with D31E, G33K, M34Y, T52G, Y53Q, S54D, I103V, L104G, G105V
VL: B17 VL
B20: ABT2-108-603/ABT1-122 Fab on yeast surface (Fab, V domains shown)
VH: B7 VH with D31E, E32Y, G33T, Y53D, S54A, I103V, L104G, G105V
VL: B17 VL
B21: ABT2-108-604/ABT1-122 Fab on yeast surface (Fab, V domains shown)
VH: B7 VH with D31E, E32Y, G33T, I51V, S54D, I103V, L104G, G105V
VL: B17 VL
B22: ABT2-108-605/ABT1-122 Fab on yeast surface (Fab, V domains shown)
VH: EVQLLESGGGLVQPGGSLRLSCAASGFTFAEYTMMWVRQAPGKGLEWVSRIGQDGKNTYYREDVKGRFTISRDNSKNTLYLQMNSLRAEDTAVYYCAKYTGRVGVHHLFDYWGQGTLVTVSS
VL: B17 VL
B23: ABT2-108-606/ABT1-122 Fab on yeast surface (Fab, V domains shown)
VH: B22 VH with E62S, D63S
VL: B17 VL
B24: ABT2-108-608/ABT1-122 Fab on yeast surface (Fab, V domains shown)
VH: B22 VH with Y60T, E62D, D63S
VL: B17 VL
B25: ABT2-108-612/ABT1-122 Fab on yeast surface (Fab, V domains shown)
VH: B22 VH with R61A, E62D, D63S, V103I, G104M, V105G
VL: B17 VL
B26: ABT2-108-614/ABT1-122 Fab on yeast surface (Fab, V domains shown)
VH: B22 VH with R61A, E62D, D63S, V103I, G104L, V105R
VL: B17 VL
B27: ABT2-108-615/ABT1-122 Fab on yeast surface (Fab, V domains shown)
VH: B22 VH with Y59V, Y60I, E62D, D63S
VL: B17 VL
B28: ABT2-108-616/ABT1-122 Fab on yeast surface (Fab, V domains shown)
VH: B22 VH with R61A, E62D, D63S, V103I, G104Y, V105N
VL: B17 VL
B29: ABT2-108-617/ABT1-122 Fab on yeast surface (Fab, V domains shown)
VH: B22 VH with R61A, E62D, D63S, V103I, G104F, V105T
VL: B17 VL
B30: ABT1-95-15 (other)
VL: B3 VL with H30V, G31R, Q55E, S56P
notes: VK dAb

target: T1, human IL-1α (human, UniProt P01583 113-271); experiment: Table 60 heading; dAbs from selection on antigen
T1 construct: also called IL-1alpha; hIL-1α
T1 sequence (looked up): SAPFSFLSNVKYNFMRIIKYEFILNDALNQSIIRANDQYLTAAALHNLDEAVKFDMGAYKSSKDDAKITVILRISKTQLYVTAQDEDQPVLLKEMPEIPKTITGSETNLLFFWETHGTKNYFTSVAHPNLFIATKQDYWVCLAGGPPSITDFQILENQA

B1: binds.
B2: binds.

target: T1, human IL-1α; experiment: Table 62 IC50; RBA presumed

Point of comparison: B4, IC50 0.8 nM. Against it:
- B3 — 5-fold higher, 4 nM
- B5 — the same, 0.8 nM
- B6 — the same, 0.8 nM

target: T2, human IL-1α (human, UniProt P01583 113-271); experiment: cell-based or functional assay
T2 sequence (looked up): T1 sequence (looked up)

Point of comparison: B14, “MRC5 IL-1α” value 2.7 nM. Against it:
- B7 — 96-fold higher, 259 nM
- B8 — 28-fold higher, 75 nM
- B9 — 560-fold higher, 1500 nM
- B10 — 150-fold higher, 400 nM
- B11 — 110-fold higher, 300 nM
- B12 — 84-fold lower, 0.032 nM
- B13 — 190-fold lower, 0.014 nM
- B15 — 7.4-fold higher, 20 nM
- B16 — 370-fold higher, 1000 nM

target: T3, human IL-1β (human, UniProt P01584 117-269); experiment: cell-based or functional assay

Point of comparison: B14, “MRC5 IL-1β” value 0.094 nM. Against it:
- B7 — 10-fold lower, 0.009 nM
- B8 — 10-fold lower, 0.0094 nM
- B9 — 230-fold higher, 22 nM
- B10 — 10-fold higher, 0.975 nM
- B12 — 4.1-fold lower, 0.023 nM
- B13 — 2.1-fold higher, 0.197 nM
- B15 — 11-fold higher, 1 nM
- B16 — 11-fold higher, 1 nM

target: T3, human IL-1β; experiment: yeast surface Fab display, flow cytometry titration

Point of comparison: B17, EC50 5.78 nM. Against it:
- B18 — 11-fold lower, 0.522 nM
- B19 — 12-fold lower, 0.474 nM
- B20 — 4.3-fold lower, 1.35 nM
- B21 — 4.3-fold lower, 1.35 nM
- B22 — 28-fold lower, 0.21 nM
- B23 — 17-fold lower, 0.343 nM
- B24 — 16-fold lower, 0.366 nM
- B25 — 22-fold lower, 0.267 nM
- B26 — 5.7-fold lower, 1.01 nM
- B27 — 27-fold lower, 0.214 nM
- B28 — 18-fold lower, 0.324 nM
- B29 — 26-fold lower, 0.224 nM

Point of comparison: B27, “fold improvement in affinity over ABT2-108” value 25 fold. Against it:
- B21 — lower, 5 fold
- B29 — the same, 25 fold

target: T1, human IL-1α; experiment: cell-based or functional assay

In the case of B3, the ND50 is reported as 80 nM.

target: T1, human IL-1α; experiment: Table 62 KD; BIAcore presumed

Point of comparison: B5, Kd 0.9 nM. Against it:
- B3 — 7.8-fold higher, 7 nM
- B4 — within 1.5-fold, 1 nM
- B6 — the same, 0.9 nM
- B30 — 2.2-fold lower, 0.4 nM

target: T2, human IL-1α; experiment: cell-based or functional assay; remark: another data set of the same source

With B9 the “IL-1α IC50” value was 1000 nM and 1500 nM and 3000 nM.

Point of comparison: B11, “IL-1α IC50” value 1500 nM. Against it:
- B10 — 3.8-fold lower, 400 nM
- B12 — 16000-fold lower, 0.095 nM
- B13 — far lower, 0.015 nM
- B16 — 1.5-fold lower, 1000 nM

target: T3, human IL-1β; experiment: cell-based or functional assay; remark: another data set of the same source

For B7, the “IL-1β IC50” value was 0.006 nM and 0.009 nM and 0.01 nM.
In the case of B8, the “IL-1β IC50” value is reported as 0.005 nM and 0.008 nM and 0.01 nM.
For B16, the “IL-1β IC50” value was 0.2 nM and 0.4 nM.

Point of comparison: B11, “IL-1β IC50” value 200 nM. Against it:
- B10 — 200-fold lower, 1 nM
- B12 — 5700-fold lower, 0.035 nM
- B13 — 1400-fold lower, 0.145 nM
